# Test results reported in paper PMC4888466.
# Legend:
# [1] = substrate: O=c1ccn([C@@H]2O[C@H](COP(=O)(O)OP(=O)(O)OP(=O)(O)O)[C@@H](O)[C@H]2O)c(=O)[nH]1; experiment: purified protein; assay type: biochemical, Caenorhabditis elegans; conditions: 1 mM Glc-1-P, 5 mM MgCl2, pH 7.5, 25°C
# [2] = substrate: O=P(O)(O)O[C@H]1O[C@H](CO)[C@@H](O)[C@H](O)[C@H]1O; experiment: purified protein; assay type: biochemical, Caenorhabditis elegans; conditions: 1 mM UTP, 5 mM MgCl2, pH 7.5, 25°C
protein,measurement,setting,value
UGP-1 (Caenorhabditis elegans) (protein) MSNDQLKSKLREFFDRQPDQSEKAHQDSKIFEVLYSQFLENQHCIDWNSWKFLEEKHQVTLKDLEPFDKSRFNILNKLAVIKLNGGLGTTMGCSKAKSLVEVREGYTFMDLAVLEHQKMCEAHNVDTPLYLMNSFYTDEDTKKYLAEKGYSNVKTFVQSKCPRLDAETKLPIEDENEDWGDDAWCPPGHGNIFQSLQNSGVLDQLLADGREIIFVSNIDNTGANTDLQIVQLMLDKNVDYIMECTPKTQVDVKGGTLIDIGGRMMHLEMPQVPAENLPDFCSTKVFKIFNTNNIYVNLKAVKKLLPDIKSEIIVNKKTIRSREVLQLEFSIGGCIKNFDNALCVHVERKRFRPVKNLGDLLSLRSTLCDLDHSTFKVHHNHELGAPPVISLDPSIYNSVEVVDLKFPHPLVMDNCSEFAVVGDVTFGKNVKLSGKVTVNGKTESPGVVPDGTVLKDQEYIAE,Km,[1],13.85 ± 2.95 µM
same,kcat,[1],20 ± 0.7 s⁻¹
same,kcat/Km,[1],1.45e+06 ± 310000 M⁻¹ s⁻¹
same,Km,[2],77.65 ± 7.73 µM
same,kcat,[2],23 ± 0.65 s⁻¹
same,kcat/Km,[2],300000 ± 31000 M⁻¹ s⁻¹
